T1: truncated cTfR1 of SEQ ID NO:123 (cynomolgus monkey, UniProt Q5RDH6 122-760 (Pongo abelii entry))
T1 construct: also called cynomolgus TfR1
T1 chain: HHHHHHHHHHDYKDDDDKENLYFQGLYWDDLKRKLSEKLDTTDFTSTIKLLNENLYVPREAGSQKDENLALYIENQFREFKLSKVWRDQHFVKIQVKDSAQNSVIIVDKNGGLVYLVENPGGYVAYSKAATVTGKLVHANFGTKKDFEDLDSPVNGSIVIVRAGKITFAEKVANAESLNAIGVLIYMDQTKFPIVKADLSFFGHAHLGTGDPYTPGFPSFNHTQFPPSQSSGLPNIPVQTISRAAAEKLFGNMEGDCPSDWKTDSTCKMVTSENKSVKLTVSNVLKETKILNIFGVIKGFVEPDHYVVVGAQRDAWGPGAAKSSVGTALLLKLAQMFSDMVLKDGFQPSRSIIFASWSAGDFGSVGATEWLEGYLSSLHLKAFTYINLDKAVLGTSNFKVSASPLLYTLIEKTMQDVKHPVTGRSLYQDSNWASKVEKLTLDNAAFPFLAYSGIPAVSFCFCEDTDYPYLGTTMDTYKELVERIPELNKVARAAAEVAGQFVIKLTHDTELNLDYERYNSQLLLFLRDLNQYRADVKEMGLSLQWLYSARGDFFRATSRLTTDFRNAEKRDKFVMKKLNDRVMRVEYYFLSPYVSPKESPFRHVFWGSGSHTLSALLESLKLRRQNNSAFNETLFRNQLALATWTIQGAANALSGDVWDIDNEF


Key:
[1] = target: T2, truncated hTfR1 of SEQ ID NO:122 (human, UniProt P02786 122-760); test: SPR follow-up, 4 replicates, FLAG-captured hTfR1, scFv injected
T2 construct: also called human TfR1; Human TfR1
Method: (§1) The interaction was measured using the single cycle kinetics method with a contact time of 120 s at a flow rate of 30 μl/min followed by a dissociation time of 600 s. Regeneration of the surface between cycles was done by injecting 10 mM glycine-HCl, pH 1.7. The binding data was fitted to a 1:1 interaction model. The scFv variants were diluted in HBS-EP+ (Cytiva. #BR100669). Experiments were performed at 25° C.
The selected molecules were produced as described above.

[2] = target: T2, truncated hTfR1 of SEQ ID NO:122; test: SPR, FLAG-captured TfR1, scFv injected, 1:1 fit
Method: as §1

[3] = target: T1, truncated cTfR1 of SEQ ID NO:123; test: SPR, FLAG-captured TfR1, scFv injected, 1:1 fit
Method: as §1

[4] = target: T2, truncated hTfR1 of SEQ ID NO:122; test: SPR, TfR1 amine-coupled, Fab injected, 1:1 fit
Method: (§2) Binding of the purified Fabs to human and cynomolgus TfR1 was evaluated using either SPR (FIG. 44) or indirect ELISA (FIG. 45). For SPR, a Biacore 8K instrument (Cytiva) was used. […] The Fabs were injected over the chip using a 2-fold dilution series in four steps starting at 100 nM. The interaction was measured using the single cycle kinetics method with a contact time of 120 s at a flow rate of 30 μl/min followed by a dissociation time of 1000 s. Regeneration of the surface between cycles was done by injecting 3M MgCl₂. The binding data was fitted to a 1:1 interaction model. The Fabs were diluted in HBS-EP+ (Cytiva, #BR100669). Experiments were performed at 25° C.

[5] = target: T1, truncated cTfR1 of SEQ ID NO:123; test: SPR, TfR1 amine-coupled, Fab injected, 1:1 fit
Method: as §2

T2 sequence (P02786 other isoform, or with tags, fused parts or gaps limits assumed): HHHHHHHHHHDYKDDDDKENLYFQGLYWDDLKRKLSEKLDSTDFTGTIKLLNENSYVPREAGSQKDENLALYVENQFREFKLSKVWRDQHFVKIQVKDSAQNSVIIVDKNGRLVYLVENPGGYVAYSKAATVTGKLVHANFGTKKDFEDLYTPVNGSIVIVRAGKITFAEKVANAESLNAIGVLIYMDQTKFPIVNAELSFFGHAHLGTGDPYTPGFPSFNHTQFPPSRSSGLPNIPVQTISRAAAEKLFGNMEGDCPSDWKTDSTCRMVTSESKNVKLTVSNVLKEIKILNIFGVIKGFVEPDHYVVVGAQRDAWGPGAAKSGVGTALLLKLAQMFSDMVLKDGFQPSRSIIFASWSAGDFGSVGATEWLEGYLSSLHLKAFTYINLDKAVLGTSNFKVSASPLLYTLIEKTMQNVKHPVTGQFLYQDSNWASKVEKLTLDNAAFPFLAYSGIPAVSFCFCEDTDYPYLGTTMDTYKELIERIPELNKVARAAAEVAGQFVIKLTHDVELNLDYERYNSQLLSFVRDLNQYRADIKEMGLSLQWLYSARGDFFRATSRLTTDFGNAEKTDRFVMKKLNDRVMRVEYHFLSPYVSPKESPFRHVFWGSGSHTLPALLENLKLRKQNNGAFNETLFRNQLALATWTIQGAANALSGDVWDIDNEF

Binder	Kd [1]	koff [1]	kon [1]	Kd [2]	koff [2]	kon [2]	Kd [3]	koff [3]	kon [3]	Kd [4]	Kd [5]
h26D3 HC6 DS S122K (scFv, also called h26D3 DS S122K) scFv: HHHHHHGGGGSGGGGSGGGGSGGGGSDIQMTQSPSSVSASVGDRVTITCKSSQSLLYSTNQKNYLAWYQQKPGKAPKLLIYWASTRESGVPSRFSGSGSGTDFTLTISSLQPEDFATYYCQQYFIYPRTFGCGTKVEIKGGGGSGGGGSGGGGSGGGGSEVQLVQSGAEVKKPGSSVKVSCKASGYIFTDYNMDWVRQAPGQCLEWIGDINPDADTTSYNEKFKGRATLTVDKSTSTAYMELSSLRSEDTAVYYCARGGYSGSSYYHPMDYWGQGTLVTVKS	62.6 nM	0.00482 s⁻¹	85800 M⁻¹ s⁻¹	53.7 nM	0.00407 s⁻¹	76400 M⁻¹ s⁻¹	170 nM	0.0103 s⁻¹	61500 M⁻¹ s⁻¹		
h26D3 HC6 DS T120K (scFv, also called h26D3 DS T120K) scFv: HHHHHHGGGGSGGGGSGGGGSGGGGSDIQMTQSPSSVSASVGDRVTITCKSSQSLLYSTNQKNYLAWYQQKPGKAPKLLIYWASTRESGVPSRFSGSGSGTDFTLTISSLQPEDFATYYCQQYFIYPRTFGCGTKVEIKGGGGSGGGGSGGGGSGGGGSEVQLVQSGAEVKKPGSSVKVSCKASGYIFTDYNMDWVRQAPGQCLEWIGDINPDADTTSYNEKFKGRATLTVDKSTSTAYMELSSLRSEDTAVYYCARGGYSGSSYYHPMDYWGQGTLVKVSS	71.3 nM	0.00478 s⁻¹	67300 M⁻¹ s⁻¹	59.3 nM	0.00429 s⁻¹	75100 M⁻¹ s⁻¹	197 nM	0.0113 s⁻¹	57400 M⁻¹ s⁻¹		
h26D3 HC6 DS V11R T91A (scFv, also called h26D3 DS V11R T91A) scFv: HHHHHHGGGGSGGGGSGGGGSGGGGSDIQMTQSPSSVSASVGDRVTITCKSSQSLLYSTNQKNYLAWYQQKPGKAPKLLIYWASTRESGVPSRFSGSGSGTDFTLTISSLQPEDFATYYCQQYFIYPRTFGCGTKVEIKGGGGSGGGGSGGGGSGGGGSEVQLVQSGAERKKPGSSVKVSCKASGYIFTDYNMDWVRQAPGQCLEWIGDINPDADTTSYNEKFKGRATLTVDKSTSTAYMELSSLRSEDAAVYYCARGGYSGSSYYHPMDYWGQGTLVTVSS	58.7 nM	0.00419 s⁻¹	74900 M⁻¹ s⁻¹	61.3 nM	0.00458 s⁻¹	76100 M⁻¹ s⁻¹	206 nM	0.012 s⁻¹	58100 M⁻¹ s⁻¹		
h26D3 HC6 DS T91S T120K (scFv, also called h26D3 DS T91S T120K) scFv: HHHHHHGGGGSGGGGSGGGGSGGGGSDIQMTQSPSSVSASVGDRVTITCKSSQSLLYSTNQKNYLAWYQQKPGKAPKLLIYWASTRESGVPSRFSGSGSGTDFTLTISSLQPEDFATYYCQQYFIYPRTFGCGTKVEIKGGGGSGGGGSGGGGSGGGGSEVQLVQSGAEVKKPGSSVKVSCKASGYIFTDYNMDWVRQAPGQCLEWIGDINPDADTTSYNEKFKGRATLTVDKSTSTAYMELSSLRSEDSAVYYCARGGYSGSSYYHPMDYWGQGTLVKVSS	55.5 nM	0.00465 s⁻¹	87200 M⁻¹ s⁻¹	66.2 nM	0.00409 s⁻¹	61900 M⁻¹ s⁻¹	245 nM	0.0115 s⁻¹	46700 M⁻¹ s⁻¹		
h26D3 HC6 DS T91S S122K (scFv, also called h26D3 DS T91S S122K) scFv: HHHHHHGGGGSGGGGSGGGGSGGGGSDIQMTQSPSSVSASVGDRVTITCKSSQSLLYSTNQKNYLAWYQQKPGKAPKLLIYWASTRESGVPSRFSGSGSGTDFTLTISSLQPEDFATYYCQQYFIYPRTFGCGTKVEIKGGGGSGGGGSGGGGSGGGGSEVQLVQSGAEVKKPGSSVKVSCKASGYIFTDYNMDWVRQAPGQCLEWIGDINPDADTTSYNEKFKGRATLTVDKSTSTAYMELSSLRSEDSAVYYCARGGYSGSSYYHPMDYWGQGTLVTVKS	69.5 nM	0.00463 s⁻¹	67000 M⁻¹ s⁻¹	50.5 nM	0.0038 s⁻¹	76200 M⁻¹ s⁻¹	221 nM	0.0108 s⁻¹	48600 M⁻¹ s⁻¹		

The remaining lines, values ahead:

Kd [1]	koff [1]	kon [1]	Kd [2]	koff [2]	kon [2]	Kd [3]	koff [3]	kon [3]	Kd [4]	Kd [5]	Binder
66.2 nM	0.00439 s⁻¹	67100 M⁻¹ s⁻¹	68.9 nM	0.00434 s⁻¹	63500 M⁻¹ s⁻¹	246 nM	0.0114 s⁻¹	47600 M⁻¹ s⁻¹			h26D3-HC6_DS, VL-first (scFv) scFv: DIQMTQSPSSVSASVGDRVTITCKSSQSLLYSTNQKNYLAWYQQKPGKAPKLLIYWASTRESGVPSRFSGSGSGTDFTLTISSLQPEDFATYYCQQYFIYPRTFGCGTKVEIKGGGGSGGGGSGGGGSGGGGSEVQLVQSGAEVKKPGSSVKVSCKASGYIFTDYNMDWVRQAPGQCLEWIGDINPDADTTSYNEKFKGRATLTVDKSTSTAYMELSSLRSEDTAVYYCARGGYSGSSYYHPMDYWGQGTLVTVSS
									8.7 nM	12 nM	h26D3 variant HC2 Fab (Fab, V domains shown, Single-mutant His-tagged Fab; also called Y32A) VH: EVQLVQSGAEVKKPGSSVKVSCKASGYIFTDANMDWVRQAPGQGLEWIGDINPDYDTTSYNEKFKGRATLTVDKSTSTAYMELSSLRSEDTAVYYCARGGYSGSSYYHPMDYWGQGTLVTVSS VL: DIQMTQSPSSVSASVGDRVTITCKSSQSLLYSTNQKNYLAWYQQKPGKAPKLLIYWASTRESGVPSRFSGSGSGTDFTLTISSLQPEDFATYYCQQYFIYPRTFGQGTKVEIK
									16 nM	168 nM	h26D3 variant HC3 Fab (Fab, V domains shown, Single-mutant His-tagged Fab; also called D35A) VH: EVQLVQSGAEVKKPGSSVKVSCKASGYIFTDYNMAWVRQAPGQGLEWIGDINPDYDTTSYNEKFKGRATLTVDKSTSTAYMELSSLRSEDTAVYYCARGGYSGSSYYHPMDYWGQGTLVTVSS VL: DIQMTQSPSSVSASVGDRVTITCKSSQSLLYSTNQKNYLAWYQQKPGKAPKLLIYWASTRESGVPSRFSGSGSGTDFTLTISSLQPEDFATYYCQQYFIYPRTFGQGTKVEIK
									156 nM	164 nM	h26D3 variant HC6 Fab (Fab, V domains shown, Single-mutant His-tagged Fab; also called Y55A) VH: EVQLVQSGAEVKKPGSSVKVSCKASGYIFTDYNMDWVRQAPGQGLEWIGDINPDADTTSYNEKFKGRATLTVDKSTSTAYMELSSLRSEDTAVYYCARGGYSGSSYYHPMDYWGQGTLVTVSS VL: DIQMTQSPSSVSASVGDRVTITCKSSQSLLYSTNQKNYLAWYQQKPGKAPKLLIYWASTRESGVPSRFSGSGSGTDFTLTISSLQPEDFATYYCQQYFIYPRTFGQGTKVEIK
									5.1 nM	8 nM	h26D3 variant HC4 Fab (Fab, V domains shown, Single-mutant His-tagged Fab; also called D50A) VH: EVQLVQSGAEVKKPGSSVKVSCKASGYIFTDYNMDWVRQAPGQGLEWIGAINPDYDTTSYNEKFKGRATLTVDKSTSTAYMELSSLRSEDTAVYYCARGGYSGSSYYHPMDYWGQGTLVTVSS VL: DIQMTQSPSSVSASVGDRVTITCKSSQSLLYSTNQKNYLAWYQQKPGKAPKLLIYWASTRESGVPSRFSGSGSGTDFTLTISSLQPEDFATYYCQQYFIYPRTFGQGTKVEIK
									20 nM	39 nM	h26D3 variant HC5 Fab (Fab, V domains shown, Single-mutant His-tagged Fab; also called D54A) VH: EVQLVQSGAEVKKPGSSVKVSCKASGYIFTDYNMDWVRQAPGQGLEWIGDINPAYDTTSYNEKFKGRATLTVDKSTSTAYMELSSLRSEDTAVYYCARGGYSGSSYYHPMDYWGQGTLVTVSS VL: DIQMTQSPSSVSASVGDRVTITCKSSQSLLYSTNQKNYLAWYQQKPGKAPKLLIYWASTRESGVPSRFSGSGSGTDFTLTISSLQPEDFATYYCQQYFIYPRTFGQGTKVEIK
48.6 nM	0.00449 s⁻¹	95700 M⁻¹ s⁻¹	60.2 nM	0.00441 s⁻¹	73300 M⁻¹ s⁻¹	201 nM	0.0124 s⁻¹	61300 M⁻¹ s⁻¹			h26D3 HC6 DS V11R T120K (scFv, also called h26D3 DS V11R T120K) scFv: HHHHHHGGGGSGGGGSGGGGSGGGGSDIQMTQSPSSVSASVGDRVTITCKSSQSLLYSTNQKNYLAWYQQKPGKAPKLLIYWASTRESGVPSRFSGSGSGTDFTLTISSLQPEDFATYYCQQYFIYPRTFGCGTKVEIKGGGGSGGGGSGGGGSGGGGSEVQLVQSGAERKKPGSSVKVSCKASGYIFTDYNMDWVRQAPGQCLEWIGDINPDADTTSYNEKFKGRATLTVDKSTSTAYMELSSLRSEDTAVYYCARGGYSGSSYYHPMDYWGQGTLVKVSS
